Data set [1] has as its target T1, PpEst (Ectopseudomonas oleovorans, UniProt W6R2Y2).
T1 construct: gene tesA
As to the kind of experiment: 4-NPB hydrolysis inhibition, […] nm. Type of data set: biochemical.

Substrate in data set [2]: CCCC(=O)Oc1ccc([N+](=O)[O-])cc1
As to the kind of experiment: purified protein. It is filed as biochemical, Ectopseudomonas oleovorans. Conditions: 20 mM Tris-HCl pH 8.0, 150 mM NaCl, 0.1% Triton X-100, 25 °C, 'Exponential Rise to maximum' fit.

What is called Ki is the equilibrium dissociation constant of an inhibitor or competing ligand from its target. A lower Ki goes with a stronger hold on the target. The Km is the concentration of substrate that gives half-maximal velocity. As usually defined, the kcat is the maximal rate divided by the concentration of active sites.

`O=C(O)c1ccc(C(=O)OCCCCO)cc1` [BuTA, 4-(4-hydroxybutoxycarbonyl)benzoic acid] came in with a Ki in data set [1] of 670 µM.

B1: PpEst (Ectopseudomonas oleovorans CECT 5344) (protein)
chain: GTLLVVGDSISAAFGLDSRQGWVALLEKRLSEEGFEHSVVNASISGDTSAGGAARLSALLAEHKPELVIIELGGNDGLRGQPPAQLQQNLASMVEQSQQAGAKVLLLGMKLPPNYGVRYTTAFAQVFTDLAEQKQVSLVPFFLEGVGGVPGMMQADGIHPAEAAQEILLDNVWPTLKPML
As to B1, in data set [2], the Km was 4.85 mM and the kcat was 1.98 s⁻¹.

For the origin of these results see article PMC5320007, “PpEst is a novel PBAT degrading polyesterase identified by proteomic screening of Pseudomonas pseudoalcaligenes” (Applied Microbiology and Biotechnology, 2016).
